Patent publication US7442375B2, “Compositions of beta-defensin inducing agents” (Case Western Reserve University, priority 2002, dated 2008)

Key:
CCR5 = CCR5 (Homo sapiens, UniProt P51681); experiment: Confocal microscopy of co-receptor surface expression on CEM X4/R5 cells; type: cell-based; parameters: endogenous in cells; conditions: 20 μg/ml, 3 h
Method: (§1) CEM X4/R5 cells were grown in RPMI-1640 medium containing 5% FBS and 400 μg/ml G418. Cells were collected, washed twice with PBS, resuspended in RPMI with 0.5% FBS or supplemented with 20 μg/ml recombinant hBD-2 or -3, and incubated at 37° C., 5% CO2 for 3 h. A second aliquot of cells, after incubation with hBD, was treated with FACS/Perm (PharMingen) at room temperature for 10 min and then washed three times with PBS. A third aliquot of cells was fixed in 1% paraformaldehyde on ice for 30 min, washed three times with PBS, and then incubated with 20 μg/ml hBD-2 or -3. Cells were stained with PE-labeled CXCR4 or CCR5 (PharMingen), or with primary goat anti-hBD-2 antibodies (Cell Sciences, Norwood, Mass., USA), or with rabbit anti-hBD-3 antibodies (Orbingen, San Diego, Calif., USA) at room temperature for 90 min, followed by washing three times with PBS. Fluorescein isothiocyanate-labeled rabbit anti-goat IgG (Jackson ImmunoResearch, West Grove, Pa., USA) for detection of hBD-2, or goat anti-rabbit IgG (Sigma) for detection of hBD-3, were added, respectively, at room temperature and incubated for 90 min. […] All samples were observed using a dual scanning confocal microscope system (Zeiss LSM 510, Oberkochem, Germany) and analyzed with the Zeiss LSM 5 Image Browser. […]

CXCR4 = CXCR4 (Homo sapiens, UniProt P61073); experiment: as above; type: cell-based; parameters: endogenous in cells; conditions: 20 μg/ml, 3 h
Method: as §1

HIV-1 R5-C-97ZA003 = experiment: hBD-virion interaction: virions incubated with hBD, pelleted, washed, used to infect GHOST X4/R5 cells; type: cell-based; conditions: 20 μg/ml in 10 mM PB 1 h; RT activity 48 h post-infection
Method: (§2) (a) CXCR4 tropic HXB2 and CCR5 tropic 97ZA003 HIV-1 strains were incubated with 20 μg/ml hBD-1, -2, or -3 in 10 mM PB for 1 h. Virions were pelleted, washed extensively with PBS and used to infect GHOST X4/R5 cells. RT activity was measured 48 h post-infection. The final two columns represent an additional 20 μg/ml of hBD-2 or -3 during infection. (b) Immunoelectron microscopy analysis showing the interaction of hBD-2 and -3 with HIV-1 and with MT4 cell membrane. X4 HIV-1 HXB2 strain and MT4 cells were incubated with hBD-2 or -3 (20 μg/ml), 37° C., 1 h. Polyclonal anti-hBD-2 or -3 antibodies were added, followed by addition of secondary IgG conjugated with 10-nm gold particles. Arrows indicate hBD-2 and -3 localization to virions and cell membrane.
(§3) In order to verify a direct hBD-virion interaction, the X4 B-HXB2 and R5-C-97ZA003 HIV-1 strains was incubated with 20 μg/ml of each hBD in 10 mM PB for 1 h, followed by pelleting and extensive washing. Virions were then used to infect GHOST X4/R5 cells. […] To further define these interactions, MT4 cells, infected with the CXCR4 tropic B-HXB2, were incubated with hBD-2 or -3 in RPMI, followed by the addition of anti-hBD-2 or -3 antibodies and goat anti-rabbit IgG conjugated with 10-nm gold particles.

HIV-1 X4 B-HXB2 = experiment: as above; type: cell-based
Method: as §2, §3

HIV-1 B-HXB2 virions = experiment: Immunogold transmission electron microscopy; type: binding; conditions: 20 μg/ml, 37° C., 1 h; anti-hBD antibody and 10-nm gold IgG
Method: as §2
MT4 cells in RPMI, or X4 strain B-HXB2 viral particles in 10 mM phosphate buffer (PB), were incubated with 20 μg/ml hBD-2 and -3 at 37° C. for 1 h. Cells and virions were centrifuged (15 min, 1200 rpm for cells; 30 min, 35 000 3 g for virus) and washed twice with PBS to remove unbound hBD. Cells and virions were mixed and fixed with 4% paraformaldehyde/0.5% glutaraldehyde, dehydrated, embedded in LR WHITE resin (London Resin Company Ltd, Berkshire, UK), and labeled after embedding as described [Briquet et al.]. […]

CEM X4/R5 cells = experiment: Confocal microscopy, localisation of hBD on CEM X4/R5 cells; type: cell-based, human; conditions: live cells incubated with hBD, then anti-hBD antibodies
Method: as §1

CXCR4, sequence (P61073 whole entry): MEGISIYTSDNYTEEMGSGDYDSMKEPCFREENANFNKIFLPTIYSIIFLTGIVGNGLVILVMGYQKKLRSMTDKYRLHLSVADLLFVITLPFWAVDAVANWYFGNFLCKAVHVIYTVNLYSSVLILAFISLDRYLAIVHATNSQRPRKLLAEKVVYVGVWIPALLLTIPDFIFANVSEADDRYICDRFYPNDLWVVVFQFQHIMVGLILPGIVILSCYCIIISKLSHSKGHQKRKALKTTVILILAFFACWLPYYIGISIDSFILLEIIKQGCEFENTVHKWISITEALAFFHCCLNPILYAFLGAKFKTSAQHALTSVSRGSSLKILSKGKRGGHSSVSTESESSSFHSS
CCR5, sequence (P51681 whole entry): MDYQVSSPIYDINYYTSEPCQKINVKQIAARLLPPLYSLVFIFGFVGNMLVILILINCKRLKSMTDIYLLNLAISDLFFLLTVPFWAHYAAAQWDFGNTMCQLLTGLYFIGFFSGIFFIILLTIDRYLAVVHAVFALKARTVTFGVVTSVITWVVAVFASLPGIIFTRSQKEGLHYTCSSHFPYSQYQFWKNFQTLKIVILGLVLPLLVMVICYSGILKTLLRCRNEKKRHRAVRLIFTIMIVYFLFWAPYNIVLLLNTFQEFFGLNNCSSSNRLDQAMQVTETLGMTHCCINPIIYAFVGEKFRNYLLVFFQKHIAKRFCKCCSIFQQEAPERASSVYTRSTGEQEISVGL

B1: hBD-3: Recombinant human β-defensin 3 produced using an hBD-3-His tag fusion construct cloned into pET-30c; exemplary sequence SEQ ID NO:15 (protein, listed as Homo sapiens)
chain: MRIHYLLFALLFLFLVPVPGHGGIINTLQKYYCRVRGGRCAVLSCLPKEEQIGKCSTRGRKCCRRKK
modifications: not fully specified (C-terminus); ends and bridges not checked
CCR5
  surface expression of CCR5: not
CXCR4
  surface expression of CXCR4: dramatically decreased
HIV-1 R5-C-97ZA003
  anti-HIV-1 effect after pelleting and extensive washing of virions: maintained after washing
HIV-1 X4 B-HXB2; 20 μg/ml in 10 mM PB 1 h, RT activity 48 h post-infection
  anti-HIV-1 effect after pelleting and extensive washing of virions: maintained after washing
HIV-1 X4 B-HXB2; additional 20 μg/ml during infection, enhancement only against the CXCR4-tropic strain
  effect of subsequent addition of hBD to the cell-virus mixture: enhanced anti-HIV-1 activity
HIV-1 B-HXB2 virions
  gold particles bound to virions: bound both to virions and to the MT4 cellular membrane
CEM X4/R5 cells
  detection of peptide on the cell surface: failed to detect
